Laboratory results from the RNAGym collection of RNA variant scans (doi:10.7554/elife.90254).

B1: OR4K15 (parent)
chain: GUUAACGGUCAUAGGCCAUGGAAACUAGGAGCACCAUUUCGCUGCCAGUGAAGAAAUGAACAAAGAAAAUCUGGGCCAGGCAGGCAUCAAAAGAAAUAGUCUUGCGCUCAACCAGAAAGUCUGUAAUCAUUUUAAGGGUA

Variants of: B1
Experiment: self-cleavage, relative activity (ratio to wild type); higher = more cleavage; in vitro, sequencing; the parent is a self-cleaving ribozyme
In the case of GUUAACGGUCAUAGGCCAUGGAAACUAGGAGCACCAUUUCGCUGCCAGUGAAGAAAUGAACAAAGAAAAUCUGGGCAAGGCAGGCAUCGAAAGAAAUAGUCUUGCGCUCAACCAGAAAGUCUGUAAUCAUUUUAAGGGUA [C77A A89G], the self-cleavage is reported as 0.61.
In the case of GUUAACGGUCAUAGGCCAUGGAAACUAGGAGCACCAUUUCGCUGCCAGUGAAGAAAUGAACAAAGAAAAUCUGGGCAGGGCAGGCAUCAAAAGAAAUAGUCUUGCGCUCAACCAGAAAGUCUGUAAUCAUUUUAAGGGUA [C77A A78G], the self-cleavage is reported as 0.53.
GUUAACGGUCAUAGGCCAUGGAAACUAGGAGCACCAUUUCGCUGCCAGUGAAGAAAUGAACAAAGAAAAUCUGGGCUAGGCAGGCAUCAAAAGAAAUAGUCUUGCGCUCAACCAGAAAGUCUGUAUUCAUUUUAAGGGUA [C77U A126U] showed a self-cleavage of 1.88.
With GUUAACGGUCAUAGGCCAUGGAAACUAGGAGCACCAUUUCGCUGCCAGUGAAGAAAUGAACAAAGAAAAUCUGGGUCAGGCAGGCACCAAAAGAAAUAGUCUUGCGCUCAACCAGAAAGUCUGUAAUCAUUUUAAGGGUA [C76U U87C] the self-cleavage was 0.17.
With GUUAACGGUCAUAGGCCAUGGAAACUAGGAGCACCAUUUCGCUGCCAGUGAAGAAAUGAACAAAGAAAAUCUGGGCUAGGCGGGCAUCAAAAGAAAUAGUCUUGCGCUCAACCAGAAAGUCUGUAAUCAUUUUAAGGGUA [C77U A82G] the self-cleavage was 1.26.
For GUUAACGGUCAUAGGCCAUGGAAACUAGGAGCACCAUUUCGCUGCCAGUGAAGAAAUGAACAAAGAAAAUCUGGGACAGGCAGGCAUCAAAAGAAAUAGUCUUGCGCUCAUCCAGAAAGUCUGUAAUCAUUUUAAGGGUA [C76A A111U], the self-cleavage was 0.03.
GUUAACGGUCAUAGGCCAUGGAAACUAGGAGCACCAUUUCGCUGCCAGUGAAGAAAUGAACAAAGAAAAUCUGGGCUAGGCAGGCAUCAAAAGAAAUAGUCUUGCGCUCAACUAGAAAGUCUGUAAUCAUUUUAAGGGUA [C77U C113U] gave a self-cleavage of 0.27.
GUUAACGGUCAUAGGCCAUGGAAACUAGGAGCACCAUUUCGCUGCCAGUGAAGAAAUGAACAAAGAAAAUCUGGGCUAGGCAGGCAUCGAAAGAAAUAGUCUUGCGCUCAACCAGAAAGUCUGUAAUCAUUUUAAGGGUA [C77U A89G] showed a self-cleavage of 2.1.
Work on GUUAACGGUCAUAGGCCAUGGAAACUAGGAGCACCAUUUCGCUGCCAGUGAAGAAAUGAACAAAGAAAAUCUGGGCUAGGCAGGCAUCAAGAGAAAUAGUCUUGCGCUCAACCAGAAAGUCUGUAAUCAUUUUAAGGGUA [C77U A91G] yielded a self-cleavage of 1.91.
For GUUAACGGUCAUAGGCCAUGGAAACUAGGAGCACCAUUUCGCUGCCAGUGAAGAAAUGAACAAAGAAAAUCUGGGCUAGGCAGGCAUCAAAAGAAAUGGUCUUGCGCUCAACCAGAAAGUCUGUAAUCAUUUUAAGGGUA [C77U A98G], the self-cleavage was 0.88.
In the case of GUUAACGGUCAUAGGCCAUGGAAACUAGGAGCACCAUUUCGCUGCCAGUGAAGAAAUGAACAAAGAAAAUCUGGGUCAGGCAGGCAUCAAAAGAAAUAGUCUUGCGCACAACCAGAAAGUCUGUAAUCAUUUUAAGGGUA [C76U U108A], the self-cleavage is reported as 0.01.
GUUAACGGUCAUAGGCCAUGGAAACUAGGAGCACCAUUUCGCUGCCAGUGAAGAAAUGAACAAAGAAAAUCUGGGCUAGGCAGGCAUCAAAAGAAAUAGUCUUGCGCUCAACCAGAGAGUCUGUAAUCAUUUUAAGGGUA [C77U A117G] gave a self-cleavage of 2.83.
Variant GUUAACGGUCAUAGGCCAUGGAAACUAGGAGCACCAUUUCGCUGCCAGUGAAGAAAUGAACAAAGAAAAUCUGGGUCAGGCAGGCAUCAAAAGAACUAGUCUUGCGCUCAACCAGAAAGUCUGUAAUCAUUUUAAGGGUA [C76U A96C] has a self-cleavage of 0.1.
GUUAACGGUCAUAGGCCAUGGAAACUAGGAGCACCAUUUCGCUGCCAGUGAAGAAAUGAACAAAGAAAAUCUGGGUCCGGCAGGCAUCAAAAGAAAUAGUCUUGCGCUCAACCAGAAAGUCUGUAAUCAUUUUAAGGGUA [C76U A78C] showed a self-cleavage of 0.11.
GUUAACGGUCAUAGGCCAUGGAAACUAGGAGCACCAUUUCGCUGCCAGUGAAGAAAUGAACAAAGAAAAUCUGGGCUAGGCAGGCAUCAAAAGAAAUAGUCUUGCGCUCAACCAGAAAGUCUGUAAUCAUUUUAAGGGUA [C77U] showed a self-cleavage of 1.54.
Variant GUUAACGGUCAUAGGCCAUGGAAACUAGGAGCACCAUUUCGCUGCCAGUGAAGAAAUGAACAAAGAAAAUCUGGGCAAGGCAGGCAUCAAAAGAAAUAGUCUUGCGCUCAACCAGAAAGUCUGUAAUCAUUUUAAGGGUA [C77A] has a self-cleavage of 0.76.
GUUAACGGUCAUAGGCCAUGGAAACUAGGAGCACCAUUUCGCUGCCAGUGAAGAAAUGAACAAAGAAAAUCUGGGGCAGGCAGGCAUCAAAAGAAUUAGUCUUGCGCUCAACCAGAAAGUCUGUAAUCAUUUUAAGGGUA [C76G A96U] showed a self-cleavage of 0.09.
For GUUAACGGUCAUAGGCCAUGGAAACUAGGAGCACCAUUUCGCUGCCAGUGAAGAAAUGAACAAAGAAAAUCUGGUCCAGGCAGGUAUCAAAAGAAAUAGUCUUGCGCUCAACCAGAAAGUCUGUAAUCAUUUUAAGGGUA [G75U C85U], the self-cleavage was 0.21.
Work on GUUAACGGUCAUAGGCCAUGGAAACUAGGAGCACCAUUUCGCUGCCAGUGAAGAAAUGAACAAAGAAAAUCUGGCCCAGGCAGGCAUCAAAAGAAACAGUCUUGCGCUCAACCAGAAAGUCUGUAAUCAUUUUAAGGGUA [G75C U97C] yielded a self-cleavage of 0.12.
GUUAACGGUCAUAGGCCAUGGAAACUAGGAGCACCAUUUCGCUGCCAGUGAAGAAAUGAACAAAGAAAAUCUGGUCCAGGCAGGCAUCAAAAGAAAUAGUCUUGCGCUCAACCAGAAAGUCUGUAAUCAUUUUAAGGGUA [G75U] gave a self-cleavage of 0.12.
GUUAACGGUCAUAGGCCAUGGAAACUAGGAGCACCAUUUCGCUGCCAGUGAAGAAAUGAACAAAGAAAAUCUGGGACAGGCAGGCAUCAAAAGAAAUAGUCUUGCGCUCAACCAGAGAGUCUGUAAUCAUUUUAAGGGUA [C76A A117G] gave a self-cleavage of 0.18.
GUUAACGGUCAUAGGCCAUGGAAACUAGGAGCACCAUUUCGCUGCCAGUGAAGAAAUGAACAAAGAAAAUCUGGGCAAGGCAGGCAUCAAAAGAAGUAGUCUUGCGCUCAACCAGAAAGUCUGUAAUCAUUUUAAGGGUA [C77A A96G] gave a self-cleavage of 1.
GUUAACGGUCAUAGGCCAUGGAAACUAGGAGCACCAUUUCGCUGCCAGUGAAGAAAUGAACAAAGAAAAUCUGGUCCAGGCAGGCAUCAAAAGAAAUAGUCUUGCGCUCAACCAGAAAGUCUGUAAUCAUUUAAAGGGUA [G75U U133A] showed a self-cleavage of 0.15.
GUUAACGGUCAUAGGCCAUGGAAACUAGGAGCACCAUUUCGCUGCCAGUGAAGAAAUGAACAAAGAAAAUCUGGCCCAGGCAGGCAUCAAAAGAAAUAGUCUUGCGCUCAACCAGAAAGUCCGUAAUCAUUUUAAGGGUA [G75C U122C] showed a self-cleavage of 0.12.
Variant GUUAACGGUCAUAGGCCAUGGAAACUAGGAGCACCAUUUCGCUGCCAGUGAAGAAAUGAACAAAGAAAAUCUGGGACAGGCAGGCAUCAGAAGAAAUAGUCUUGCGCUCAACCAGAAAGUCUGUAAUCAUUUUAAGGGUA [C76A A90G] has a self-cleavage of 0.14.
Variant GUUAACGGUCAUAGGCCAUGGAAACUAGGAGCACCAUUUCGCUGCCAGUGAAGAAAUGAACAAAGAAAAUCUGGCCCAGGCAGGCAUCAAAAGAAAUAGUCUUGCGCUCAACCAGAAAGUCUGUAAUCACUUUAAGGGUA [G75C U130C] has a self-cleavage of 0.08.
For GUUAACGGUCAUAGGCCAUGGAAACUAGGAGCACCAUUUCGCUGCCAGUGAAGAAAUGAACAAAGAAAAUCUGGGUCAGGCAGGCAUCAAAAGAAAUAGUCUUGCGCUCAACCAGAAAGUCUGUAAUCAUUUUAAGGGUA [C76U], the self-cleavage was 0.05.
With GUUAACGGUCAUAGGCCAUGGAAACUAGGAGCACCAUUUCGCUGCCAGUGAAGAAAUGAACAAAGAAAAUCUGGGGCAGGCAGGCAUCAAAAGAAAUAGUCUUGCGCUCAACCAGAAAGUCUGUAAUCAUUUUAAGGGUA [C76G] the self-cleavage was 0.16.
For GUUAACGGUCAUAGGCCAUGGAAACUAGGAGCACCAUUUCGCUGCCAGUGAAGAAAUGAACAAAGAAAAUCUGGGACAGGCAGGCAUCAAAAGAAAUAGUCUUGCGCUCAACCAGAAAGUCUGUAAUCAUUUUAAGGGUA [C76A], the self-cleavage was 0.1.
In the case of GUUAACGGUCAUAGGCCAUGGAAACUAGGAGCACCAUUUCGCUGCCAGUGAAGAAAUGAACAAAGAAAAUCUGGCCCAGGCAGGCAUCAAAAGAAAUAGUCUCGCGCUCAACCAGAAAGUCUGUAAUCAUUUUAAGGGUA [G75C U103C], the self-cleavage is reported as 0.12.
In the case of GUUAACGGUCAUAGGCCAUGGAAACUAGGAGCACCAUUUCGCUGCCAGUGAAGAAAUGAACAAAGAAAAUCUGGCCCAGGCAGGCAUCAAAAGAAAUAGUCUGGCGCUCAACCAGAAAGUCUGUAAUCAUUUUAAGGGUA [G75C U103G], the self-cleavage is reported as 0.02.
Work on GUUAACGGUCAUAGGCCAUGGAAACUAGGAGCACCAUUUCGCUGCCAGUGAAGAAAUGAACAAAGAAAAUCUGGGCUAGGCAGGCAUCAAAAGAAAUAGUCUUGCGCUCAACCUGAAAGUCUGUAAUCAUUUUAAGGGUA [C77U A114U] yielded a self-cleavage of 0.14.
For GUUAACGGUCAUAGGCCAUGGAAACUAGGAGCACCAUUUCGCUGCCAGUGAAGAAAUGAACAAAGAAAAUCUGGGACAGGCAGGCAUCAAAAGAAAUAGUCUUGCGCUCAACCAGAAAGACUGUAAUCAUUUUAAGGGUA [C76A U120A], the self-cleavage was 0.19.
With GUUAACGGUCAUAGGCCAUGGAAACUAGGAGCACCAUUUCGCUGCCAGUGAAGAAAUGAACAAAGAAAAUCUGGGACAGGCAGGCAUCAAAAGAAAUAGUCUUGCGCUCAACCAGAAAGUCUGUAAUCAUCUUAAGGGUA [C76A U131C] the self-cleavage was 0.08.
GUUAACGGUCAUAGGCCAUGGAAACUAGGAGCACCAUUUCGCUGCCAGUGAAGAAAUGAACAAAGAAAAUCUGGUCCAGGCAGGCAUCAAAAGAAAUAGUCUUGCGCUCAACCAGAAAGUCUGUAGUCAUUUUAAGGGUA [G75U A126G] gave a self-cleavage of 0.08.
GUUAACGGUCAUAGGCCAUGGAAACUAGGAGCACCAUUUCGCUGCCAGUGAAGAAAUGAACAAAGAAAAUCUGGGCAAGGCAGGCAUCAAAAGAAAUAGCCUUGCGCUCAACCAGAAAGUCUGUAAUCAUUUUAAGGGUA [C77A U100C] showed a self-cleavage of 0.61.
GUUAACGGUCAUAGGCCAUGGAAACUAGGAGCACCAUUUCGCUGCCAGUGAAGAAAUGAACAAAGAAAAUCUGGUCCAGGCAGGCAUCAAAAGAAAUAGUCUUGCGCUCAACCAGAAAGUCUGUAACCAUUUUAAGGGUA [G75U U127C] showed a self-cleavage of 0.11.
Work on GUUAACGGUCAUAGGCCAUGGAAACUAGGAGCACCAUUUCGCUGCCAGUGAAGAAAUGAACAAAGAAAAUCUGGGUCAGGCAGGCAUCAAAAGAAAUAGUCUUGCGCUCAACCAGAAGGUCUGUAAUCAUUUUAAGGGUA [C76U A118G] yielded a self-cleavage of 0.1.
Work on GUUAACGGUCAUAGGCCAUGGAAACUAGGAGCACCAUUUCGCUGCCAGUGAAGAAAUGAACAAAGAAAAUCUGGGUCAGGCAGGCAUCAAAAGAAAUAGUCUUGUGCUCAACCAGAAAGUCUGUAAUCAUUUUAAGGGUA [C76U C105U] yielded a self-cleavage of 0.03.
GUUAACGGUCAUAGGCCAUGGAAACUAGGAGCACCAUUUCGCUGCCAGUGAAGAAAUGAACAAAGAAAAUCUGGUCCAGGCAGGCAUCAAAAGAAAUAGUCUUGCGCUCAACCAGAGAGUCUGUAAUCAUUUUAAGGGUA [G75U A117G] gave a self-cleavage of 0.15.
In the case of GUUAACGGUCAUAGGCCAUGGAAACUAGGAGCACCAUUUCGCUGCCAGUGAAGAAAUGAACAAAGAAAAUCUGGGACAGGCAGGCAUCAAAAGAAGUAGUCUUGCGCUCAACCAGAAAGUCUGUAAUCAUUUUAAGGGUA [C76A A96G], the self-cleavage is reported as 0.19.
